± gives the uncertainty stated by the source.
Assay: protein stability index of a GFP-peptide fusion (yeast GPS) (PSI 1-4); higher = more stable; sorted into four equal gates, so the index is relative within each strain
Method in brief: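 The protein stability index combines read frequencies across sorting gates, each weighted by its gate number and then summed. To obtain those frequencies, a pooled yeast library of GFP fusions to tiled 17-residue yeast protein peptides, on a plasmid also expressing Cherry, was grown to mid-log phase in leucine-free medium. The cells were sorted into four equal gates by GFP/Cherry ratio before plasmid amplification by PCR and Illumina sequencing.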

Sequence	protein stability index (doa10∆)	protein stability index (pdr5∆)	protein stability index (san1∆)	protein stability index (ubr1∆)
KDFVTMAIEIINDIRDD [YCG1]	1.85 ± 0.12	1.7 ± 0.16	2.17 ± 0.2	2.42 ± 0.19
NSFIKANLPWLGKAQNW [RPN2]	–	2.6 ± 0.13	–	–
AARVDIGQIIFSVRTKD [RPL10]	1.74 ± 0.078	1.67 ± 0.081	2.78 ± 0.12	2.04 ± 0.057
KKYLKKNQLRDWIRFVS [RPL22A]	1.8 ± 0.06	1.68 ± 0.062	1.2 ± 0.14	1.12 ± 0.09
NGNTSSKTVVTLSEPVQ [FAS1]	2.91 ± 0.072	3.14 ± 0.066	2.96 ± 0.059	2.96 ± 0.055
RTWYESFCGFLLYYIPS [YJR042W/NUP85]	1.88 ± 0.055	1.43 ± 0.047	1.58 ± 0.11	1.99 ± 0.057
AAQAQAQAQAQAQAQAQ [GAL11]	2.69 ± 0.045	2.9 ± 0.043	2.65 ± 0.04	2.95 ± 0.068
EAKKFEPTYRLVRYGLA [RPS24A]	2.83 ± 0.14	3.11 ± 0.095	2.79 ± 0.13	2.88 ± 0.049
SIGRTAQGKEFGVTKAR [RPL17A]	3.28 ± 0.14	3.44 ± 0.12	3.05 ± 0.096	–
AKIISKAPEQFIENFLT [YML103C/NUP188]	2.69 ± 0.17	2.94 ± 0.26	2.54 ± 0.2	2.89 ± 0.2
QNIAQSSNQSAPVETKK [HRT1]	3.01 ± 0.11	2.91 ± 0.14	3.47 ± 0.15	3.16 ± 0.067
EAIDGNGEIKGENIDAD [SNF2]	3.53 ± 0.14	3.4 ± 0.071	3.48 ± 0.078	3.25 ± 0.12
SGDKEATAPLIQRKNKK [RPN8]	3.39 ± 0.2	3.35 ± 0.14	3.25 ± 0.095	–
SHIESDSTSHNNGSSDK [MED1]	2.89 ± 0.042	2.94 ± 0.038	2.84 ± 0.042	3.01 ± 0.032
VSNPIRKVFKPSQGMVV [FAS1]	3.08 ± 0.068	2.74 ± 0.061	2.87 ± 0.14	2.66 ± 0.068
KNKKIEVYTKTIEVLDE [POP7]	2.12 ± 0.11	2.78 ± 0.11	2.45 ± 0.15	2.61 ± 0.14
LITSSARKELPIFDYIH [SIR3]	2.16 ± 0.056	2.06 ± 0.061	1.92 ± 0.068	2.48 ± 0.048
TTNMNVNNCIWALKSSL [RGR1]	2.26 ± 0.068	1.32 ± 0.065	1.36 ± 0.21	1.25 ± 0.046
SKVVDDMPSLRLIDLSG [GRR1]	2.8 ± 0.076	2.91 ± 0.081	2.72 ± 0.056	2.71 ± 0.078
GNIVAELAQDPQTMEHY [YCS4]	2.9 ± 0.1	3.4 ± 0.17	3.44 ± 0.16	2.07 ± 0.11
LGKKGVPYVVTHDGRTI [RPS4A]	2.43 ± 0.068	2.52 ± 0.092	1.66 ± 0.098	2.13 ± 0.054
LGNDIPHDLIIGTADIF [BRR2]	2.6 ± 0.055	2.76 ± 0.068	2.84 ± 0.059	2.86 ± 0.047
PVENIWADIFAKALDGQ [RPP1A]	3.13 ± 0.1	3.25 ± 0.12	2.49 ± 0.23	2.62 ± 0.1
EYSYVDSNMDSISSVVS [RPN4]	2.84 ± 0.075	3.26 ± 0.066	2.68 ± 0.076	3.05 ± 0.043
QAHTLYNSVRPFGVSTI [PRE10]	2.71 ± 0.083	2.74 ± 0.071	2.92 ± 0.095	2.6 ± 0.042
FLTNELIRLQMEKLDAK [SWI3]	2.97 ± 0.11	2.98 ± 0.085	3.14 ± 0.051	2.96 ± 0.078

Sequence	protein stability index (doa10∆)	protein stability index (pdr5∆)	protein stability index (san1∆)	protein stability index (ubr1∆)
PISKHSKQAIYTRATAS [RPS25A]	1.86 ± 0.055	1.86 ± 0.044	1.64 ± 0.08	1.81 ± 0.038
STLTTISGNPPLLYNSL [SRB5]	2.66 ± 0.043	2.46 ± 0.038	2.49 ± 0.043	2.56 ± 0.036
KGETNSEISIIDATLKE [RRP45]	2.92 ± 0.074	3.08 ± 0.068	3.31 ± 0.072	3.19 ± 0.059
VCIRPSVMMQDSPASNE [RPO31]	1.63 ± 0.085	2.08 ± 0.1	1.94 ± 0.11	2.06 ± 0.099
YEAPRHGHLGFLPRKRA [RPL3]	2.99 ± 0.1	3.03 ± 0.071	2.88 ± 0.05	2.72 ± 0.09
MLASQANGGSTIISPHK [DSN1]	3.42 ± 0.17	3.43 ± 0.14	3.45 ± 0.073	3.28 ± 0.15
VQKRDEVKEQLGILKKK [SMC4]	2.75 ± 0.095	3.01 ± 0.077	3.24 ± 0.061	2.78 ± 0.05
YSNSHQMAVHIATDGGR [RET1]	1.98 ± 0.071	2.95 ± 0.086	2.35 ± 0.13	2.73 ± 0.057
LLVFRNADLDLDEMELH [YDL116W/NUP84]	3.01 ± 0.074	2.45 ± 0.073	3.01 ± 0.054	2.73 ± 0.047
KVLNEISKTTLTLDPRY [RPN3]	2.88 ± 0.085	2.99 ± 0.055	2.89 ± 0.05	3.2 ± 0.069
NRRKQSFVLNKNTIDFE [RPN4]	2.86 ± 0.062	1.74 ± 0.045	2.1 ± 0.075	1.88 ± 0.044
NEQAARAANQGALPPDL [CYT1]	3.18 ± 0.058	3.32 ± 0.049	2.94 ± 0.053	3.03 ± 0.042
FFLQRKLRSELGYKDTS [BRR2]	2.11 ± 0.091	1.53 ± 0.071	1.71 ± 0.12	1.35 ± 0.18
NKVQIMIATNVAARGLD [PRP28]	1.45 ± 0.061	1.5 ± 0.078	1.43 ± 0.15	1.19 ± 0.055
GAEVLIKGSKLSLGEAF [COR1]	–	–	2.32 ± 0.15	2.37 ± 0.1
LSESDKKSKLISLYLLN [RPN12]	2.21 ± 0.17	3 ± 0.1	2.07 ± 0.21	2.31 ± 0.063
SPYERRLIDLIRNSGEK [RPL36A]	1.86 ± 0.093	1.89 ± 0.098	1.68 ± 0.16	1.89 ± 0.086
SADCELLGIDATVPSGR [RPO31]	–	3.06 ± 0.18	–	3.32 ± 0.081
ILGQTMSIGTGSFKVVK [RPO31]	–	2.47 ± 0.13	1.97 ± 0.12	2.99 ± 0.15
ERVIVVTGFAEVGPWGS [FAS2]	1.16 ± 0.085	1.36 ± 0.083	2.03 ± 0.11	1.47 ± 0.074
EQILQWVTEVLGNDIPH [BRR2]	3.07 ± 0.07	3.31 ± 0.063	2.88 ± 0.047	3.19 ± 0.058
QDIKKAKRVENFNSSAP [DSN1]	3.31 ± 0.1	3.44 ± 0.085	3.02 ± 0.16	3.42 ± 0.06
FFRNKLKYHDFLRKATA [RPL16B]	2.02 ± 0.085	2.48 ± 0.086	2.4 ± 0.079	2.23 ± 0.072
EKGNAKMIDFATLSKLK [SIR3]	3.15 ± 0.074	3.08 ± 0.057	3.33 ± 0.037	3.24 ± 0.035
NLLKDEGVTPGRIRTTR [SSN3]	3.1 ± 0.26	2.87 ± 0.23	3.26 ± 0.12	–
RILAMCVKNHGQSSSIQ [YCS4]	2.11 ± 0.055	1.79 ± 0.051	2.13 ± 0.057	1.94 ± 0.054
